T1: rat ICAM-1 on LPS-induced rat brain endothelial cells (SV-RBEC) (rat, UniProt Q00238 28-545)
T1 construct: whole, on cells; Endogenous protein on fixed cells
T1 sequence (looked up): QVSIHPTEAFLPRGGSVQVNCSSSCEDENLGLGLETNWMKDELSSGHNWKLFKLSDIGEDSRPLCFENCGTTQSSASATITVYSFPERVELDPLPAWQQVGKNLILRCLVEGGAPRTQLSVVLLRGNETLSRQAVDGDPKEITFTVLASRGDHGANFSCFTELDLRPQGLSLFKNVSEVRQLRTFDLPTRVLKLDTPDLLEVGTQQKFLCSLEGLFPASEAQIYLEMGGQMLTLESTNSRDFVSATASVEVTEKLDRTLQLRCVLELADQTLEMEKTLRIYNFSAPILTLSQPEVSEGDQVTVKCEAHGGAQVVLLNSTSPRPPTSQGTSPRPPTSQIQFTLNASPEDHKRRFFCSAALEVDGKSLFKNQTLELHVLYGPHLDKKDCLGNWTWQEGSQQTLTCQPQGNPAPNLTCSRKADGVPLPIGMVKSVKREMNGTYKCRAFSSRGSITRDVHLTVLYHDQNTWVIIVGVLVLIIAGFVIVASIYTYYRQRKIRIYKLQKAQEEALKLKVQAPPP


What was measured:
[1] = molecular target: T1, rat ICAM-1 on LPS-induced rat brain …; assay: immunofluorescence with Cy5.5-labelled sdAb on fixed SV-RBEC cells with or without LPS
Description: Rat brain endothelial cells (SV-RBEC) were cultured on coverslips for 3 days in DMEM and 10% FBS. ICAM-1 expression was induced by adding 5 μg (1 mg/ml) of lipopolysaccharide (LPS; Sigma) overnight. Cells were then washed 3× with cold PBS, fixed with 3.7% formaldehyde for 20 min, washed again 3× in PBS at RT, and then blocked with 5% of normal goat serum/PBS for 1 h at RT. 25 μg anti-ICAM-1 IgG or 50 μg anti-ICAM-1 single domain antibodies (34-1, 11-4, 5-5) labelled with Cy5.5 (red) were incubated for 1 h at RT then washed 3× in PBS. The washed cells were incubated in 1:500 WGA-FITC/PBS for 1 min on ice, for membrane staining (green) then washed again 3× with PBS. Coverslips were then mounted in DAKO mounting medium containing 2 μg/ml of Hoechst for nuclear staining (blue).

[2] = molecular target: T2, mouse ICAM-1 in vivo (vasculature and atherosclerotic plaques of ApoE KO mice) (mouse, UniProt P13597 28-537); assay: in vivo near-infrared optical imaging of ApoE KO and control mice after injection of Cy5.5-labelled sdAb
T2 construct: whole, on cells; Endogenous protein in the living animal; also called ICAM-1 receptor
T2 sequence (P13597 28-537): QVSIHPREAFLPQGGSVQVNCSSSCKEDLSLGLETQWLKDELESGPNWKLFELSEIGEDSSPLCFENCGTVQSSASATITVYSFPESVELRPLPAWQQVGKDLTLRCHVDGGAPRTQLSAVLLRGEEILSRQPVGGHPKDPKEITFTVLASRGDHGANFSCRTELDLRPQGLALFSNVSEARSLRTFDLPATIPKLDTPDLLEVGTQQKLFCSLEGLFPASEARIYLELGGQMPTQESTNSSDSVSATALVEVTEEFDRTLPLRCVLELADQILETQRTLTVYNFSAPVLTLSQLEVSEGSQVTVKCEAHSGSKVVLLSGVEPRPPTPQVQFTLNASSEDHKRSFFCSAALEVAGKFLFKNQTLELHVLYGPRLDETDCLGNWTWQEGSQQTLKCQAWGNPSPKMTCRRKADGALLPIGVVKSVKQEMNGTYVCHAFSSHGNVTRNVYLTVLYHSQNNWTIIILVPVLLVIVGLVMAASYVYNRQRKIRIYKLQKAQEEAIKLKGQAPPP
Description: Anti-ICAM-1 antibodies were labelled with Cy5.5 succimidyl ester using methods recommended by the manufacturer (GE Healthcare). […] The presence of plaques in the aorta of atherosclerotic mice (Example 6) was visualized monthly via tail vein injection of 50 μg of anti-ICAM-1 sdAb using non-invasive in vivo optical imaging. In vivo imaging studies were performed using a small-animal time-domain eXplore Optix MX2 pre-clinical imager (Advanced Research Technologies, Montreal, QC) at 4, 24, 48, and 72 h after injection. For imaging, mice were first anesthetized with isofluorane, and then positioned on an animal stage in a chamber that allows for maintenance of gaseous anesthesia. A pre-injection scan was routinely performed to determine baseline fluorescence level. At the end of the study, animals were euthanized and perfused, organs were removed and imaged. […] The fluorescence emission at 700 nm was collected by a highly sensitive time-correlated single photon counting system and detected through a fast photomultiplier tube. The data were recorded as temporal point-spread functions (TPSF) and the images were reconstructed as fluorescence concentration maps using ART Optix Optiview analysis software 2.0 (Advanced Research Technologies, Montreal, QC).

recombinant human ICAM-1 = molecular target: T3, recombinant human ICAM-1 (human, UniProt P05362 28-480); assay: SPR (Biacore 3000), ICAM-1 captured on SA chip, monomeric VHH injected, 25 C
T3 construct: Bought recombinant protein; In SPR it was captured on an SA sensor chip; also called intercellular adhesion molecule 1; CD54
T3 sequence (P05362 28-480 limits assumed): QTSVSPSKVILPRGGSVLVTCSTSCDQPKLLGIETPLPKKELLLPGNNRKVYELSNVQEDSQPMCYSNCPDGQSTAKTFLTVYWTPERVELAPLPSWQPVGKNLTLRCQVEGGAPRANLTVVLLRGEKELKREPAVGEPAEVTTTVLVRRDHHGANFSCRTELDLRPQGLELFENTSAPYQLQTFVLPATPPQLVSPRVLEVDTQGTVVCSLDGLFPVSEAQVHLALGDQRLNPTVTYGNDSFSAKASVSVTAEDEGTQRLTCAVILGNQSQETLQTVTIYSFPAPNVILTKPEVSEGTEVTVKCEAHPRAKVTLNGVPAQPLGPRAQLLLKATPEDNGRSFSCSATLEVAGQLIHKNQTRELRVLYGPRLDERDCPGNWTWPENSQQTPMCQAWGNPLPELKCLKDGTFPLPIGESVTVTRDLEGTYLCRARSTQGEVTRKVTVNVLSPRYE
Description: Three clones (5-5, 11-4, and 34-1) obtained in Example 4 were individually passed through size exclusion columns, Superdex 75 (GE Healthcare) in 10 mM HEPES, pH 7.4, containing 150 mM NaCl, 3 mM EDTA; monomeric sdAb fractions were collected and protein concentrations were determined by measuring A₂₈₀. SPR analyses were performed with Biacore 3000 instrument (GE Healthcare). All measurements were carried out at 25° C. in 10 mM HEPES, pH 7.4, containing 150 mM NaCl, 3 mM EDTA and 0.005% surfactant P20 (GE Healthcare). Approximately 700-900 RUs of the recombinant ICAM-1 was captured on SA sensor chip (GE Healthcare) at a flow rate of 5 μl/min. Various concentration of the monomeric VHH were injected over the ICAM-1 surface, using a SA surface as a reference, at a flow rate of 40 μl/min. Surfaces were generated by washing with running buffer. Data were analysed with BIAevaluation 4.1 software.

binding result [1]	binding result [2]	Kd (recombinant human ICAM-1) [nM]	koff (recombinant human ICAM-1) [s⁻¹]	kon (recombinant human ICAM-1) [M⁻¹ s⁻¹]	Binder
binds	binds	–	–	–	anti-ICAM-1 sdAb clone 11-4 labelled with Cy5.5 (VHH, labelled with Cy5.5 succimidyl ester, dye/antibody ratio of two; labelled residues not stated, also called anti-ICAM-1 sdAb 11-4-Cy5.5; anti-ICAM-1 11-4 sdAb-Cy5.5) VHH: QVQLVESGGGLVQPGGSLRLSCAASGSISSLYVMGWYRQAPGKQRELVADITSSGSIYYVDSLKGRFTISRDNARSTVYLQMNSLEPEDTAVYYCMAHVRQDSGSEYLTYWGQGTQVTVSS
binds	–	–	–	–	anti-ICAM-1 sdAb clone 5-5 labelled with Cy5.5 (VHH, labelled with Cy5.5 succimidyl ester, dye/antibody ratio of two; labelled residues not stated, Cy5.5 conjugate of m2) VHH: QVKLEESGGGLVQAGDSLRLSCAASGRTVNAFRMGWYRQAPGKQRERVAVITAGGTTSYIDSVKGRFTISRDNAKNTVYLQMNSLKPEDTAVYYCAAIDYDSRGQGTQVTVSS
binds	–	–	–	–	anti-ICAM-1 sdAb clone 34-1 labelled with Cy5.5 (VHH, labelled with Cy5.5 succimidyl ester, dye/antibody ratio of two; labelled residues not stated, Cy5.5 conjugate of m3) VHH: QVKLEESGGGLVQPGGSLRLSCAASGSIFSINDMGWYRQAPGKQRELVARITRDGSAAYEDSVKGRFTISRDNAPNTVFLQMNGLKPEDTAVYYCNAEIITTQTLGRMLGEYWGQGTQVTVSS

Continued, binder first:

Binder	binding result [1]	binding result [2]	Kd (recombinant human ICAM-1) [nM]	koff (recombinant human ICAM-1) [s⁻¹]	kon (recombinant human ICAM-1) [M⁻¹ s⁻¹]
anti-ICAM sdAb clone 11-4 (VHH, Soluble His6-tagged VHH expressed in E. coli from pSJF2, purified by IMAC, monomeric by SEC; also called llama sdAb clone 11-4; anti-ICAM-1 sdAb 11-4) VHH: QVQLVESGGGLVQPGGSLRLSCAASGSISSLYVMGWYRQAPGKQRELVADITSSGSIYYVDSLKGRFTISRDNARSTVYLQMNSLEPEDTAVYYCMAHVRQDSGSEYLTYWGQGTQVTVSS	–	–	0.9	0.002	2e+06
anti-ICAM sdAb clone 5-5 (VHH, Soluble His6-tagged VHH expressed in E. coli from pSJF2, purified by IMAC, monomeric by SEC; also called llama sdAb clone 5-5) VHH: QVKLEESGGGLVQAGDSLRLSCAASGRTVNAFRMGWYRQAPGKQRERVAVITAGGTTSYIDSVKGRFTISRDNAKNTVYLQMNSLKPEDTAVYYCAAIDYDSRGQGTQVTVSS	–	–	60	0.004	70000
anti-ICAM sdAb clone 34-1 (VHH, Soluble His6-tagged VHH expressed in E. coli from pSJF2, purified by IMAC, monomeric by SEC; also called llama sdAb clone 34-1) VHH: QVKLEESGGGLVQPGGSLRLSCAASGSIFSINDMGWYRQAPGKQRELVARITRDGSAAYEDSVKGRFTISRDNAPNTVFLQMNGLKPEDTAVYYCNAEIITTQTLGRMLGEYWGQGTQVTVSS	–	–	10	0.002	100000

From patent US20130064763A1 (NATIONAL RESEARCH COUNCIL OF CANADA, published 2013)
